Experimental data reported in patent publication US20120094356A1.

Target: trypsin
Assay: trypsin inhibition assay, 10 nM each, chromogenic substrate; Ka calculated

**Q.** Which Ka does the source give for “human growth hormone/alpha-1 antitrypsin fusion [T109wt: α1AT/hGH]” here?
**A.** 7.5e+08 M⁻¹
